Experiments:
[1] = biological target: Theiler's murine encephalomyelitis virus (TMEV) 2A protein (Theiler's murine encephalomyelitis virus (TMEV)); experiment: SEC-MALS; Superdex 75 increase 10/300 GL, 20 mM Tris (HCl) pH 7.5, 1.0 M NaCl, 25°C; 100 µl injected at 3.1, 0.8 and 0.38 mg/ml (200, 51.5 and 24.5 µM); Figure 1B at 3.1 mg/ml; monomer and trimer peaks
[2] = biological target: T1, TMEV 2A (Theiler's murine encephalomyelitis …, UniProt P08545 923-1055); experiment: MST; ~140 mM NaCl; EMSA: 10 mM Tris pH 7.4, ~140 mM NaCl, 2 mM Mg acetate, 1 mM DTT, 5% glycerol, tRNA, 50 nM RNA, 37 C 20 min; MST: buffer stated as 1x of 20 mM Tris pH 7.4/80 mM NaCl/4 mM Mg acetate/2 mM DTT (2x), ~140 mM NaCl final, 5 nM RNA, 25 C; ITC: 50 mM Tris pH 7.4, 400 mM NaCl, 25 C; settings: protein: recombinant, tags: GST cleaved (3C protease), N-terminal GPLGS remnant, label: 5' Cy5 (EMSA, MST); for Kd: stem-loop/pseudoknot-like
T1 sequence: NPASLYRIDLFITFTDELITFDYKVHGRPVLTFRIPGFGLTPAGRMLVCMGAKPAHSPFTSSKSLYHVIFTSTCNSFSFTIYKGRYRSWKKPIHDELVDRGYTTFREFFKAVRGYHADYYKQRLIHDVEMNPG

[3] = biological target: T1, TMEV 2A; experiment: EMSA; ~140 mM NaCl, tRNA; EMSA: 10 mM Tris pH 7.4, ~140 mM NaCl, 2 mM Mg acetate, 1 mM DTT, 5% glycerol, tRNA, 50 nM RNA, 37 C 20 min; MST: buffer stated as 1x of 20 mM Tris pH 7.4/80 mM NaCl/4 mM Mg acetate/2 mM DTT (2x), ~140 mM NaCl final, 5 nM RNA, 25 C; ITC: 50 mM Tris pH 7.4, 400 mM NaCl, 25 C; settings: protein: recombinant; tags: GST cleaved (3C protease); N-terminal GPLGS remnant; label: 5' Cy5 (EMSA, MST); hairpin, 7 bp stem
[4] = biological target: T1, TMEV 2A; experiment: EMSA; EMSA: 10 mM Tris pH 7.4, ~140 mM NaCl, 2 mM Mg acetate, 1 mM DTT, 5% glycerol, tRNA, 50 nM RNA, 37 C 20 min; MST: buffer stated as 1x of 20 mM Tris pH 7.4/80 mM NaCl/4 mM Mg acetate/2 mM DTT (2x), ~140 mM NaCl final, 5 nM RNA, 25 C; ITC: 50 mM Tris pH 7.4, 400 mM NaCl, 25 C; settings: protein: recombinant, tags: GST cleaved (3C protease), N-terminal GPLGS remnant, label: 5' Cy5
[5] = biological target: T1, TMEV 2A; experiment: ITC; 400 mM NaCl; ~1:1 stoichiometry; EMSA: 10 mM Tris pH 7.4, ~140 mM NaCl, 2 mM Mg acetate, 1 mM DTT, 5% glycerol, tRNA, 50 nM RNA, 37 C 20 min; MST: buffer stated as 1x of 20 mM Tris pH 7.4/80 mM NaCl/4 mM Mg acetate/2 mM DTT (2x), ~140 mM NaCl final, 5 nM RNA, 25 C; ITC: 50 mM Tris pH 7.4, 400 mM NaCl, 25 C; settings: protein: recombinant; tags: GST cleaved (3C protease); N-terminal GPLGS remnant; label: 5' Cy5 (EMSA, MST); none (ITC, SEC-MALS); stem-loop/pseudoknot-like

Molecule: Theiler's murine encephalomyelitis virus (TMEV) 2A protein (natural protein)
- stoichiometry N [1]: 3

Molecule: CCACAAGGUGCGGUGCUAACUAAAUCCCUAGCACCCCAGGCAGGAA (structured_RNA) [TMEV 1]
- Kd [2]: 484 ± 90 nM

Molecule: GGGUUUUUCAGCCACAAGGUGCGGUGCUAACUAAAUCCCUAGCACCCC (structured_RNA) [TMEV 3]
- Kd [2]: 495 ± 110 nM

Molecule: GCGGUGCUAACUAAAUCCCUAGCACCCC (structured_RNA) [TMEV 4]
- binding result [3]: no binding

Molecule: CACAAGGUGCGGUGCUAACUAAAUCCCUAGCACCCC (structured_RNA) [TMEV 7]
- binding result ([4]; stem-loop/pseudoknot-like): binds

Molecule: CCACAAGGUGCGGUGCUAACUAAAUCCCUAGCACCCC (structured_RNA) [TMEV 6]
- Kd ([2]; none (ITC, SEC-MALS)): 280 ± 40 nM
- Kd [5]: 67 ± 7 nM

Molecule: ACAAGGUGCGGUGCUAACUAAAUCCCUAGCACCCC (structured_RNA) [TMEV 8]
- binding result ([4]; stem-loop/pseudoknot-like): binds

Molecule: CAAGGUGCGGUGCUAACUAAAUCCCUAGCACCCC (structured_RNA) [TMEV 9]
- binding result ([4]; pseudoknot-like, G17-C38 pair): binds

Molecule: GGUGCGGUGCUAACUAAAUCCCUAGCACCCC (structured_RNA) [TMEV 12]
- binding result ([4]; stem-loop): no binding

Molecule: CAACGUGCGGUGCUAACUAAAUCCCUAGCACCCC (structured_RNA) [TMEV 9 G17C]
- binding result ([4]; stem-loop): no binding

Molecule: CAACGUGCGGUGCUAACUAAAUCCGUAGCACCCC (structured_RNA) [TMEV 9 G17C+C38G]
- binding result ([4]; compensatory pair 17-38): no binding

Molecule: CCACAACGUGCGGUGCUAACUAAAUCCGUAGCACCCCAGGCAGGAA (structured_RNA) [TMEV 1 G17C+C38G]
- binding result ([4]; compensatory pair 17-38): no binding

Molecule: GCGGUGCUAACUAAAUCCCUAGCACCCCAGGCAGGAA (structured_RNA) [TMEV 2]
- binding result ([2]; hairpin): no binding
